Measurements from paper PMC5531264.
Read-outs that look alike come from different tables or passages of the source.

What was measured:
Test in all cases: fluorescence anisotropy
[1] = target: T1, SAMHD1 C-terminal peptide (human, UniProt Q9Y3Z3 583-626)
T1 chain: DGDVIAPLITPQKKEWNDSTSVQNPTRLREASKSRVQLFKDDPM

SAMHD1 RK = SAMHD1 RK (human, UniProt Q9Y3Z3 1-626, R333E;K336E)
SAMHD1 RKRR = SAMHD1 RKRR (human, UniProt Q9Y3Z3 1-626, R333E;K336E;R371E;R372E)
SAMHD1 RR = SAMHD1 RR (human, UniProt Q9Y3Z3 1-626, R371E;R372E)
SAMHD1 wild-type [2] = target: T2, SAMHD1 wild-type (human, UniProt Q9Y3Z3 1-626)
SAMHD1 wild-type [3] = target: T2, SAMHD1 wild-type; remark: listed apart in the source

B1: FAM-dT60 (ssDNA)
DNA: TTTTTTTTTTTTTTTTTTTTTTTTTTTTTTTTTTTTTTTTTTTTTTTTTTTTTTTTTTTT
Kd [1]: 54 ± 5 µM | apparent K (half saturation) (SAMHD1 RK): 7.6 ± 0.4 µM | apparent K (half saturation) (SAMHD1 RKRR): 30 ± 2 µM | apparent K (half saturation) (SAMHD1 RR): 15 ± 1 µM | apparent K (half saturation) (SAMHD1 wild-type [2]): 500 ± 100 nM | apparent K (half saturation) (SAMHD1 wild-type [3]): 700 ± 100 nM
